# Measured values published in US20090010987A1, “Methods and Devices for Reducing Tissue Damage After Ischemic Injury” (Conor Medsystems, Inc., priority 2005, published 2009).
# Experiment: Retention of insulin bioactivity when delivered in PLGA
# Assay type: physicochemical
# Conditions: delivered in poly(lactide-co-glycolide) (PLGA)
# Text: Protein or peptide drugs can be human, non-human, recombinant or synthetic and can be the full length native form or an active fragment thereof. Preferably the insulin is a stable, short acting form which is resistant to radiation. Insulin in its crystalline form may be used for improved resistance to radiation. When the insulin is combined with a polymer, an agent may be added to preserve bioactivity. […] For substantially longer administration periods, a buffering agent such as hydroxyapatite may be used to maintain the pH as the polymer degrades to release acidic byproducts.
substance,measurement,value
Insulin: hormone which improves glycolic metabolism and ATP production; anti-ischemic agent,period over which bioactivity is retained,at least 24 hours
